# T1: Bovine, dephosphorylated, Myelin Basic Protein (MBP), P02687
# T1 chain: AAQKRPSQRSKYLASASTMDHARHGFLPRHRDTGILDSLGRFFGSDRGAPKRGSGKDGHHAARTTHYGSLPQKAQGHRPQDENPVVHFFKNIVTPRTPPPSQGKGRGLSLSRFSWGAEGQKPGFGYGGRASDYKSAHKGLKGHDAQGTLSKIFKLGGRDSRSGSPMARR
# Biological target: T1, Bovine, dephosphorylated, Myelin Basic …
row,Protein,MBP Kinase Activity
1,CSK (protein) MSAIQAAWPSGTECIAKYNFHGTAEQDLPFCKGDVLTIVAVTKDPNWYKAKNKVGREGIIPANYVQKREGVKAGTKLSLMPWFHGKITREQAERLLYPPETGLFLVRESTNYPGDYTLCVSCDGKVEHYRIMYHASKLSIDEEVYFENLMQLVEHYTSDADGLCTRLIKPKVMEGTVAAQDEFYRSGWALNMKELKLLQTIGKGEFGDVMLGDYRGNKVAVKCIKNDATAQAFLAEASVMTQLRHSNLVQLLGVIVEEKGGLYIVTEYMAKGSLVDYLRSRGRSVLGGDCLLKFSLDVCEAMEYLEGNNFVHRDLAARNVLVSEDNVAKVSDFGLTKEASSTQDTGKLPVKWTAPEALREKKFSTKSDVWSFGILLWEIYSFGRVPYPRIPLKDVVPRVEKGYKMDAPDGCPPAVYEVMKNCWHLDAAMRPSFLQLREQLEHIKTHELHL,Negative
2,LYNA (protein) MGCIKSKGKDSLSDDGVDLKTQPVRNTERTIYVRDPTSNKQQRPVPESQLLPGQRFQTKDPEEQGDIVVALYPYDGIHPDDLSFKKGEKMKVLEEHGEWWKAKSLLTKKEGFIPSNYVAKLNTLETEEWFFKDITRKDAERQLLAPGNSAGAFLIRESETLKGSFSLSVRDFDPVHGDVIKHYKIRSLDNGGYYISPRITFPCISDMIKHYQKQADGLCRRLEKACISPKPQKPWDKDAWEIPRESIKLVKRLGAGQFGEVWMGYYNNSTKVAVKTLKPGTMSVQAFLEEANLMKTLQHDKLVRLYAVVTREEPIYIITEYMAKGSLLDFLKSDEGGKVLLPKLIDFSAQIAEGMAYIERKNYIHRDLRAANVLVSESLMCKIADFGLARVIEDNEYTAREGAKFPIKWTAPEAINFGCFTIKSDVWSFGILLYEIVTYGKIPYPGRTNADVMTALSQGYRMPRVENCPDELYDIMKMCWKEKAEERPTFDYLQSVLDDFYTATEGQYQQQP,Weak
3,BMX (protein) MDTKSILEELLLKRSQQKKKMSPNNYKERLFVLTKTNLSYYEYDKMKRGSRKGSIEIKKIRCVEKVNLEEQTPVERQYPFQIVYKDGLLYVYASNEESRSQWLKALQKEIRGNPHLLVKYHSGFFVDGKFLCCQQSCKAAPGCTLWEAYANLHTAVNEEKHRVPTFPDRVLKIPRAVPVLKMDAPSSSTTLAQYDNESKKNYGSQPPSSSTSLAQYDSNSKKIYGSQPNFNMQYIPREDFPDWWQVRKLKSSSSSEDVASSNQKERNVNHTTSKISWEFPESSSSEEEENLDDYDWFAGNISRSQSEQLLRQKGKEGAFMVRNSSQVGMYTVSLFSKAVNDKKGTVKHYHVHTNAENKLYLAENYCFDSIPKLIHYHQHNSAGMITRLRHPVSTKANKVPDSVSLGNGIWELKREEITLLKELGSGQFGVVQLGKWKGQYDVAVKMIKEGSMSEDEFFQEAQTMMKLSHPKLVKFYGVCSKEYPIYIVTEYISNGCLLNYLRSHGKGLEPSQLLEMCYDVCEGMAFLESHQFIHRDLAARNCLVDRDLCVKVSDFGMTRYVLDDQYVSSVGTKFPVKWSAPEVFHYFKYSSKSDVWAFGILMWEVFSLGKQPYDLYDNSQVVLKVSQGHRLYRPHLASDTIYQIMYSCWHELPEKRPTFQQLLSSIEPLREKDKH,Strong
4,FER (protein) KSGVVLLNPIPKDKKWILSHEDVILGELLGKGNFGEVYKGTLKDKTSVAVKTCKEDLPQELKIKFLQEAKILKQYDHPNIVKLIGVCTQRQPVYIIMELVSGGDFLTFLRRKKDELKLKQLVKFSLDAAAGMLYLESKNCIHRDLAARNCLVGENNVLKISDFGMSRQEDGGVYSSSGLKQIPIKWTAPEALNYGRYSSESDVWSFGILLWETFSLGVCPYPGMTNQQAREQVERGYRMSAPQHCPEDISKIMMKCWDYKPENRPKFSELQKELTIIKRKLT,Negative
5,FES (protein) MGFSSELCSPQGHGVLQQMQEAELRLLEGMRKWMAQRVKSDREYAGLLHHMSLQDSGGQSRAISPDSPISQSWAEITSQTEGLSRLLRQHAEDLNSGPLSKLSLLIRERQQLRKTYSEQWQQLQQELTKTHSQDIEKLKSQYRALARDSAQAKRKYQEASKDKDRDKAKDKYVRSLWKLFAHHNRYVLGVRAAQLHHQHHHQLLLPGLLRSLQDLHEEMACILKEILQEYLEISSLVQDEVVAIHREMAAAAARIQPEAEYQGFLRQYGSAPDVPPCVTFDESLLEEGEPLEPGELQLNELTVESVQHTLTSVTDELAVATEMVFRRQEMVTQLQQELRNEEENTHPRERVQLLGKRQVLQEALQGLQVALCSQAKLQAQQELLQTKLEHLGPGEPPPVLLLQDDRHSTSSSEQEREGGRTPTLEILKSHISGIFRPKFSLPPPLQLIPEVQKPLHEQLWYHGAIPRAEVAELLVHSGDFLVRESQGKQEYVLSVLWDGLPRHFIIQSLDNLYRLEGEGFPSIPLLIDHLLSTQQPLTKKSGVVLHRAVPKDKWVLNHEDLVLGEQIGRGNFGEVFSGRLRADNTLVAVKSCRETLPPDLKAKFLQEARILKQYSHPNIVRLIGVCTQKQPIYIVMELVQGGDFLTFLRTEGARLRVKTLLQMVGDAAAGMEYLESKCCIHRDLAARNCLVTEKNVLKISDFGMSREEADGVYAASGGLRQVPVKWTAPEALNYGRYSSESDVWSFGILLWETFSLGASPYPNLSNQQTREFVEKGGRLPCPELCPDAVFRLMEQCWAYEPGQRPSFSTIYQELQSIRKRHR,Negative
6,ABL2(ARG) (protein) MGQQVGRVGEAPGLQQPQPRGIRGSSAARPSGRRRDPAGRTTETGFNIFTQHDHFASCVEDGFEGDKTGGSSPEALHRPYGCDVEPQALNEAIRWSSKENLLGATESDPNLFVALYDFVASGDNTLSITKGEKLRVLGYNQNGEWSEVRSKNGQGWVPSNYITPVNSLEKHSWYHGPVSRSAAEYLLSSLINGSFLVRESESSPGQLSISLRYEGRVYHYRINTTADGKVYVTAESRFSTLAELVHHHSTVADGLVTTLHYPAPKCNKPTVYGVSPIHDKWEMERTDITMKHKLGGGQYGEVYVGVWKKYSLTVAVKTLKEDTMEVEEFLKEAAVMKEIKHPNLVQLLGVCTLEPPFYIVTEYMPYGNLLDYLRECNREEVTAVVLLYMATQISSAMEYLEKKNFIHRDLAARNCLVGENHVVKVADFGLSRLMTGDTYTAHAGAKFPIKWTAPESLAYNTFSIKSDVWAFGVLLWEIATYGMSPYPGIDLSQVYDLLEKGYRMEQPEGCPPKVYELMRACWKWSPADRPSFAETHQAFETMFHDSSISEEVAEELGRAASSSSVVPYLPRLPILPSKTRTLKKQVENKENIEGAQDATENSASSLAPGFIRGAQASSGSPALPRKQRDKSPSSLLEDAKETCFTRDRKGGFFSSFMKKRNAPTPPKRSSSFREMENQPHKKYELTGNFSSVASLQHADGFSFTPAQQEANLVPPKCYGGSFAQRNLCNDDGGGGGGSGTAGGGWSGITGFFTPRLIKKTLGLRAGKPTASDDTSKPFPRSNSTSSMSSGLPEQDRMAMTLPRNCQRSKLQLERTVSTSSQPEENVDRANDMLPKKSEESAAPSRERPKAKLLPRGATALPLRTPSGDLAITEKDPPGVGVAGVAAAPKGKEKNGGARLGMAGVPEDGEQPGWPSPAKAAPVLPTTHNHKVPVLISPTLKHTPADVQLIGTDSQGNKFKLLSEHQVTSSGDKDRPRRVKPKCAPPPPPVMRLLQHPSICSDPTEEPTALTAGQSTSETQEGGKKAALGAVPISGKAGRPVMPPPQVPLPTSSISPAKMANGTAGTKVALRKTKQAAEKISADKISKEALLECADLLSSALTEPVPNSQLVDTGHQLLDYCSGYVDCIPQTRNKFAFREAVSKLELSLQELQVSSAAAGVPGTNPVLNNLLSCVQEISDVVQR,Weak
7,BTK (protein) MAAVILESIFLKRSQQKKKTSPLNFKKRLFLLTVHKLSYYEYDFERGRRGSKKGSIDVEKITCVETVVPEKNPPPERQIPRRGEESSEMEQISIIERFPYPFQVVYDEGPLYVFSPTEELRKRWIHQLKNVIRYNSDLVQKYHPCFWIDGQYLCCSQTAKNAMGCQILENRNGSLKPGSSHRKTKKPLPPTPEEDQILKKPLPPEPAAAPVSTSELKKVVALYDYMPMNANDLQLRKGDEYFILEESNLPWWRARDKNGQEGYIPSNYVTEAEDSIEMYEWYSKHMTRSQAEQLLKQEGKEGGFIVRDSSKAGKYTVSVFAKSTGDPQGVIRHYVVCSTPQSQYYLAEKHLFSTIPELINYHQHNSAGLISRLKYPVSQQNKNAPSTAGLGYGSWEIDPKDLTFLKELGTGQFGVVKYGKWRGQYDVAIKMIKEGSMSEDEFIEEAKVMMNLSHEKLVQLYGVCTKQRPIFIITEYMANGCLLNYLREMRHRFQTQQLLEMCKDVCEAMEYLESKQFLHRDLAARNCLVNDQGVVKVSDFGLSRYVLDDEYTSSVGSKFPVRWSPPEVLMYSKFSSKSDIWAFGVLMWEIYSLGKMPYERFTNSETAEHIAQGLRLYRPHLASEKVYTIMYSCWHEKADERPTFKILLSNILDVMDEES,Strong
8,JAK3 (protein) ISSDYELLSDPTPGALAPRDGLWNGAQLYACQDPTIFEERHLKYISQLGKGNFGSVELCRYDPLGDNTGALVAVKQLQHSGPDQQRDFQREIQILKALHSDFIVKYRGVSYGPGRQSLRLVMEYLPSGCLRDFLQRHRARLDASRLLLYSSQICKGMEYLGSRRCVHRDLAARNILVESEAHVKIADFGLAKLLPLDKDYYVVREPGQSPIFWYAPESLSDNIFSRQSDVWSFGVVLYELFTYCDKSCSPSAEFLRMMGCERDVPALCRLLELLEEGQRLPAPPACPAEVHELMKLCWAPSPQDRPSFSALGPQLDMLWSGSRGCETHAFTAHPEGKHHSLSFS,Strong
9,MATK(HYL) (protein) MQGHFPAERREGRPRRGTRGQQQLLVSPRFLRAWHPPPVSARMPTRRWAPGTQCITKCEHTRPKPGELAFRKGDVVTILEACENKSWYRVKHHTSGQEGLLAAGALREREALSADPKLSLMPWFHGKISGQEAVQQLQPPEDGLFLVRESARHPGDYVLCVSFGRDVIHYRVLHRDGHLTIDEAVFFCNLMDMVEHYSKDKGAICTKLVRPKRKHGTKSAEEELARAGWLLNLQHLTLGAQIGEGEFGAVLQGEYLGQKVAVKNIKCDVTAQAFLDETAVMTKMQHENLVRLLGVILHQGLYIVMEHVSKGNLVNFLRTRGRALVNTAQLLQFSLHVAEGMEYLESKKLVHRDLAARNILVSEDLVAKVSDFGLAKAERKGLDSSRLPVKWTAPEALKHGKFTSKSDVWSFGVLLWEVFSYGRAPYPKMSLKEVSEAVEKGYRMEPPEGCPGPVHVLMSSCWEAEPARRPPFRKLAEKLARELRSAGAPASVSGQDADGSTSPRSQEP,Negative

# Reference: US20090099029
